Assay [1] deals with T1, Beclin 2 (human, full length) (human, UniProt A8MW95 1-431).
T1 construct: All tagged and endogenous human forms are kept under this one id; the form used is named under assay; also called BECN2; Flag-Beclin 2
T1 sequence: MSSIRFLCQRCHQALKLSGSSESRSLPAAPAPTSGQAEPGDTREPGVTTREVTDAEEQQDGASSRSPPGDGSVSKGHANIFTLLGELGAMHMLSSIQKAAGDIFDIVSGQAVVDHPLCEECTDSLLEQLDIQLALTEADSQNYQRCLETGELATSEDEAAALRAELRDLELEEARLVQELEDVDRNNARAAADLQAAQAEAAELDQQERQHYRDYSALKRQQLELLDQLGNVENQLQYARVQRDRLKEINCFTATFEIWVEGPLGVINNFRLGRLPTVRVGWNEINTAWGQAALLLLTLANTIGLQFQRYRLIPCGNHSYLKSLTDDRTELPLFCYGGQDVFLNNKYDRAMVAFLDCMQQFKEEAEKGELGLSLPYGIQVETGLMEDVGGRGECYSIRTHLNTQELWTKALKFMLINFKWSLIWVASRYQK
Put plainly: co-IP with anti-Flag beads and immunoblot; 293T cells co-transfected with HA-Beclin 2 and a Flag-tagged plasmid (FIG. 13C). For orientation: A western blot detects proteins with antibodies after separation by electrophoresis.

For assay [2], the target named is T1, Beclin 2 (human, full length). Put plainly: co-IP with anti-Flag beads and immunoblot; HEK293T cells co-transfected with HA-Beclin 2 and Flag-tagged SNARE or RAB proteins (FIG. 32A).
Protocol: Whole cell lysates obtained 24 h post-transfection or via ligand stimulation were obtained using RIPA lysis buffer and shook on ice for 15 min. The HEK293T cell lysates were immunoprecipitated with anti-Flag conjugated beads (BioLegend) at 4° C. overnight. […] The beads were washed five times with RIPA lysis buffer, and immunoprecipitates were eluted with 2×SDS loading buffer and subjected to SDS-PAGE gel electrophoresis, followed by immunoblotting. The secondary antibody (Veriblot for IP detection, HRP-conjugated) that only recognized native IgG but not denatured IgG was applied for immunoblotting of endogenous proteins in immunoprecipitates.
Assay [3] concerns the target T2, AIM2 (human, full length) (human, UniProt O14862 1-343).
T2 construct: also called Flag-AIM2; GFP-AIM2
T2 sequence (looked up): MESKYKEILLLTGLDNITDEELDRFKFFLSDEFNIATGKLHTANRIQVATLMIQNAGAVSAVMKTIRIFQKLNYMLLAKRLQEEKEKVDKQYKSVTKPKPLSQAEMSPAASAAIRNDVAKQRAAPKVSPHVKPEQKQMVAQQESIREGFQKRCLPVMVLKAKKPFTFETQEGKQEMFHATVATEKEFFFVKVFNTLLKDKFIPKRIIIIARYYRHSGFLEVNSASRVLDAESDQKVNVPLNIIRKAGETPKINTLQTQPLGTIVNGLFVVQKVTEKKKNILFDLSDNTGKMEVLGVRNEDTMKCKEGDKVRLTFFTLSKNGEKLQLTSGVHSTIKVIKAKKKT
Put plainly: co-IP with anti-Flag beads; HA-tagged Beclin 2 truncations co-transfected with Flag-AIM2 (FIG. 25K).
Protocol: (§1) Cell lysates were immunoprecipitated with anti-Flag beads and immunoblotted using indicated antibodies. […] Cell lysates were immunoprecipitated with anti-Flag beads and immunoblotted using indicated antibodies.
(§2) Whole cell lysates obtained 24 h post-transfection or via ligand stimulation were obtained using RIPA lysis buffer and shook on ice for 15 min. The HEK293T cell lysates were immunoprecipitated with anti-Flag conjugated beads (BioLegend) at 4° C. overnight.

Assay [4] deals with T3, NLRP3 (human, full length) (human, UniProt Q96P20 1-1036, limits assumed).
T3 construct: also called Flag-NLRP3; HA-NLRP3
As to the kind of experiment: co-IP with anti-Flag beads; HA-tagged Beclin 2 truncations co-transfected with Flag-NLRP3 (FIG. 25L).
Protocol: as §1, §2

T3 sequence (Q96P20 whole entry): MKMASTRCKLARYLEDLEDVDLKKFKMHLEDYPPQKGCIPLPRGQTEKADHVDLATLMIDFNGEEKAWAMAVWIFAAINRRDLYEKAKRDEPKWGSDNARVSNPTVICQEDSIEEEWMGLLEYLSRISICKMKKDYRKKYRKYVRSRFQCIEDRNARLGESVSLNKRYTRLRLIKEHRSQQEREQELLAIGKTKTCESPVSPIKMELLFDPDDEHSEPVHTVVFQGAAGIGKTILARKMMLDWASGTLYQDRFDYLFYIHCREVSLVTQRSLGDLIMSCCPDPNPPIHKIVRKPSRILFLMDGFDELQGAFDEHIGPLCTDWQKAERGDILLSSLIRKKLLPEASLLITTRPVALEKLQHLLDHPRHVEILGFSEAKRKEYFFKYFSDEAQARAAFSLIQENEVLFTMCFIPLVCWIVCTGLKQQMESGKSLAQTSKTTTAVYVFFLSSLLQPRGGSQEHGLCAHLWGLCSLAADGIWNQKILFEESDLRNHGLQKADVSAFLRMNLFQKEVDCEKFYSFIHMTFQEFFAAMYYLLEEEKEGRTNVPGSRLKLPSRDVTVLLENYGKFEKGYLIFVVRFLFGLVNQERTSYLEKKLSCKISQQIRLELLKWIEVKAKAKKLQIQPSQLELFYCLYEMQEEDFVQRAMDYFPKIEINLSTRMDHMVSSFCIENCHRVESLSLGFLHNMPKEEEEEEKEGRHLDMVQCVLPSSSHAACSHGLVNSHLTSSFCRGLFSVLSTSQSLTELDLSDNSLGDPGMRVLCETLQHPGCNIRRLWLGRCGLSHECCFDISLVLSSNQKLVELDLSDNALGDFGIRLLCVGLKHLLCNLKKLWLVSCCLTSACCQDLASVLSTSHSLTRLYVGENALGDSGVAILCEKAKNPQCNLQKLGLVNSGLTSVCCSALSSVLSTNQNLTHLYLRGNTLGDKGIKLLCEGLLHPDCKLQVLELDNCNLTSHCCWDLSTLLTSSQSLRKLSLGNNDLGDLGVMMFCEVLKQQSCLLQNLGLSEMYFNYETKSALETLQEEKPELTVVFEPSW

B1: STX7 (other, human, UniProt O15400 1-261, looked up)
chain: MSYTPGVGGDPAQLAQRISSNIQKITQCSVEIQRTLNQLGTPQDSPELRQQLQQKQQYTNQLAKETDKYIKEFGSLPTTPSEQRQRKIQKDRLVAEFTTSLTNFQKVQRQAAEREKEFVARVRASSRVSGSFPEDSSKERNLVSWESQTQPQVQVQDEEITEDDLRLIHERESSIRQLEADIMDINEIFKDLGMMIHEQGDVIDSIEANVENAEVHVQQANQQLSRAADYQRKSRKTLCIIILILVIGVAIISLIIWGLNH
As to B1, the binding result in assay [1] is recorded as “binds”.

B2: STX6 (other, human, UniProt O43752 1-255, looked up)
chain: MSMEDPFFVVKGEVQKAVNTAQGLFQRWTELLQDPSTATREEIDWTTNELRNNLRSIEWDLEDLDETISIVEANPRKFNLDATELSIRKAFITSTRQVVRDMKDQMSTSSVQALAERKNRQALLGDSGSQNWSTGTTDKYGRLDRELQRANSHFIEEQQAQQQLIVEQQDEQLELVSGSIGVLKNMSQRIGGELEEQAVMLEDFSHELESTQSRLDNVMKKLAKVSHMTSDRRQWCAIAILFAVLLVVLILFLVL
notes: also called syntaxin 6
B2: the binding result in assay [1] is on record as “binds”.

B3: STX8 (other, human, UniProt Q9UNK0 1-236, looked up)
chain: MAPDPWFSTYDSTCQIAQEIAEKIQQRNQYERKGEKAPKLTVTIRALLQNLKEKIALLKDLLLRAVSTHQITQLEGDRRQNLLDDLVTRERLLLASFKNEGAEPDLIRSSLMSEEAKRGAPNPWLFEEPEETRGLGFDEIRQQQQKIIQEQDAGLDALSSIISRQKQMGQEIGNELDEQNEIIDDLANLVENTDEKLRNETRRVNMVDRKSASCGMIMVILLLLVAIVVVAVWPTN
In the case of B3, the binding result in assay [1] was “binds”.

B4: VAMP7 (other, human, UniProt P51809 1-220, looked up)
chain: MAILFAVVARGTTILAKHAWCGGNFLEVTEQILAKIPSENNKLTYSHGNYLFHYICQDRIVYLCITDDDFERSRAFNFLNEIKKRFQTTYGSRAQTALPYAMNSEFSSVLAAQLKHHSENKGLDKVMETQAQVDELKGIMVRNIDLVAQRGERLELLIDKTENLVDSSVTFKTTSRNLARAMCMKNLKLTIIIIIVSIVFIYIIVSPLCGGFTWPSCVKK
With B4, the binding result in assay [2] is given as “binds”.

B5: Beclin 2/ECD (ECD domain alone) (other)
chain: INCFTATFEIWVEGPLGVINNFRLGRLPTVRVGWNEINTAWGQAALLLLTLANTIGLQFQRYRLIPCGNHSYLKSLTDDRTELPLFCYGGQDVFLNNKYDRAMVAFLDCMQQFKEEAEKGELGLSLPYGIQVETGLMEDVGGRGECYSIRTHLNTQELWTKALKFMLINFKWSLIWVASRYQK
notes: HA-tagged truncation
For the molecule B5, the binding result in assay [3] and in assay [4] was “no binding” each time.

B6: RAB8A (other, human, UniProt P61006 1-207, looked up)
chain: MAKTYDYLFKLLLIGDSGVGKTCVLFRFSEDAFNSTFISTIGIDFKIRTIELDGKRIKLQIWDTAGQERFRTITTAYYRGAMGIMLVYDITNEKSFDNIRNWIRNIEEHASADVEKMILGNKCDVNDKRQVSKERGEKLALDYGIKFMETSAKANINVENAFFTLARDIKAKMDKKLEGNSPQGSNQGVKITPDQQKRSSFFRCVLL
As for B6, in assay [1], the binding result was “binds”.

B7: VAMP8 (other, human, UniProt Q9BV40 1-100, looked up)
chain: MEEASEGGGNDRVRNLQSEVEGVKNIMTQNVERILARGENLEHLRNKTEDLEATSEHFKTTSQKVARKFWWKNVKMIVLICVIVFIIILFIVLFATGAFS
Turning to B7, in assay [1], the binding result is reported as “binds”.

B8: Beclin 2/ΔECD (ECD domain deletion fragment, residues 1-248) (other)
chain: MSSIRFLCQRCHQALKLSGSSESRSLPAAPAPTSGQAEPGDTREPGVTTREVTDAEEQQDGASSRSPPGDGSVSKGHANIFTLLGELGAMHMLSSIQKAAGDIFDIVSGQAVVDHPLCEECTDSLLEQLDIQLALTEADSQNYQRCLETGELATSEDEAAALRAELRDLELEEARLVQELEDVDRNNARAAADLQAAQAEAAELDQQERQHYRDYSALKRQQLELLDQLGNVENQLQYARVQRDRLKE
notes: HA-tagged truncation; also called Beclin 2/AECD
Turning to B8, the binding result in assay [3] and in assay [4] was “no binding” each time.
